From patent US20230406885A1, “CYCLIC PEPTIDES FOR TRAPPING INTERLEUKIN-1 BETA” (MERCK SHARP & DOHME LLC, priority 2022, published 2023)
*1 amine or outer side, *2 acyl side, *3 side chain or, on linkers, in order; H or OH if unused. [ ]: non-standard residue; d: D form. Trp(4-Cl)(βS-Me) = C[C@@H](c1c[nH]c2cccc(Cl)c12)[C@H](N)C(=O)O; Pro(trans-4-NH2) = O=C([C@@H]1C[C@@H](N[*:3])CN1[*:1])[*:2]; Trp(βS-Me,4-F) = C[C@@H](c1c[nH]c2cccc(F)c12)[C@H](N)C(=O)O; Bip(4'-COOH) = N[C@@H](Cc1ccc(-c2ccc(C(=O)O)cc2)cc1)C(=O)O; Phe(4-COOH) = N[C@@H](Cc1ccc(C(=O)O)cc1)C(=O)O; hTyr = N[C@@H](CCc1ccc(O)cc1)C(=O)O; 4Pal = N[C@@H](Cc1ccncc1)C(=O)O; dDab = NCC[C@@H](N)C(=O)O; dNMeA = CN[C@H](C)C(=O)O

B1: SEQ ID NO: 57 (peptide)
peptide: cyclo([Bip(4'-COOH)]W[Phe(4-COOH)]G[Pro(trans-4-NH2)][Trp(4-Cl)(βS-Me)]Q[dNMeA]G[Bip(4'-COOH)]WG[dDab][hTyr])
SMILES: C[C@@H]1C(=O)NCC(=O)N[C@@H](Cc2ccc(-c3ccc(C(=O)O)cc3)cc2)C(=O)N[C@@H](Cc2c[nH]c3ccccc23)C(=O)NCC(=O)N[C@H](CCN)C(=O)N[C@@H](CCc2ccc(O)cc2)C(=O)N[C@@H](Cc2ccc(-c3ccc(C(=O)O)cc3)cc2)C(=O)N[C@@H](Cc2c[nH]c3ccccc23)C(=O)N[C@@H](Cc2ccc(C(=O)O)cc2)C(=O)NCC(=O)N2C[C@H](N)C[C@H]2C(=O)N[C@@H]([C@@H](C)c2c[nH]c3cccc(Cl)c23)C(=O)N[C@@H](CCC(N)=O)C(=O)N1C
B2: SEQ ID NO: 56 (peptide)
peptide: cyclo([Bip(4'-COOH)]W[Phe(4-COOH)]G[Pro(trans-4-NH2)][Trp(4-Cl)(βS-Me)]N[dNMeA]G[Bip(4'-COOH)]WG[dDab][hTyr])
SMILES: C[C@@H]1C(=O)NCC(=O)N[C@@H](Cc2ccc(-c3ccc(C(=O)O)cc3)cc2)C(=O)N[C@@H](Cc2c[nH]c3ccccc23)C(=O)NCC(=O)N[C@H](CCN)C(=O)N[C@@H](CCc2ccc(O)cc2)C(=O)N[C@@H](Cc2ccc(-c3ccc(C(=O)O)cc3)cc2)C(=O)N[C@@H](Cc2c[nH]c3ccccc23)C(=O)N[C@@H](Cc2ccc(C(=O)O)cc2)C(=O)NCC(=O)N2C[C@H](N)C[C@H]2C(=O)N[C@@H]([C@@H](C)c2c[nH]c3cccc(Cl)c23)C(=O)N[C@@H](CC(N)=O)C(=O)N1C
B3: SEQ ID NO: 58 (peptide)
peptide: cyclo([Bip(4'-COOH)]W[Phe(4-COOH)]G[Pro(trans-4-NH2)][Trp(βS-Me,4-F)]A[dNMeA]G[Bip(4'-COOH)]KL[dA][hTyr])
SMILES: CC(C)C[C@@H]1NC(=O)[C@H](CCCCN)NC(=O)[C@H](Cc2ccc(-c3ccc(C(=O)O)cc3)cc2)NC(=O)CNC(=O)[C@@H](C)N(C)C(=O)[C@H](C)NC(=O)[C@H]([C@@H](C)c2c[nH]c3cccc(F)c23)NC(=O)[C@@H]2C[C@@H](N)CN2C(=O)CNC(=O)[C@H](Cc2ccc(C(=O)O)cc2)NC(=O)[C@H](Cc2c[nH]c3ccccc23)NC(=O)[C@H](Cc2ccc(-c3ccc(C(=O)O)cc3)cc2)NC(=O)[C@H](CCc2ccc(O)cc2)NC(=O)[C@@H](C)NC1=O
B4: SEQ ID NO: 59 (peptide)
peptide: cyclo([Bip(4'-COOH)]W[Phe(4-COOH)]G[Pro(trans-4-NH2)][Trp(βS-Me,4-F)]D[dNMeA]G[Bip(4'-COOH)][4Pal]L[dA][hTyr])
SMILES: CC(C)C[C@@H]1NC(=O)[C@H](Cc2ccncc2)NC(=O)[C@H](Cc2ccc(-c3ccc(C(=O)O)cc3)cc2)NC(=O)CNC(=O)[C@@H](C)N(C)C(=O)[C@H](CC(=O)O)NC(=O)[C@H]([C@@H](C)c2c[nH]c3cccc(F)c23)NC(=O)[C@@H]2C[C@@H](N)CN2C(=O)CNC(=O)[C@H](Cc2ccc(C(=O)O)cc2)NC(=O)[C@H](Cc2c[nH]c3ccccc23)NC(=O)[C@H](Cc2ccc(-c3ccc(C(=O)O)cc3)cc2)NC(=O)[C@H](CCc2ccc(O)cc2)NC(=O)[C@@H](C)NC1=O
B5: SEQ ID NO: 55 (peptide)
peptide: cyclo([Bip(4'-COOH)]W[Phe(4-COOH)]G[Pro(trans-4-NH2)][Trp(4-Cl)(βS-Me)]E[dNMeA]G[Bip(4'-COOH)]WG[dDab][hTyr])
SMILES: C[C@@H]1C(=O)NCC(=O)N[C@@H](Cc2ccc(-c3ccc(C(=O)O)cc3)cc2)C(=O)N[C@@H](Cc2c[nH]c3ccccc23)C(=O)NCC(=O)N[C@H](CCN)C(=O)N[C@@H](CCc2ccc(O)cc2)C(=O)N[C@@H](Cc2ccc(-c3ccc(C(=O)O)cc3)cc2)C(=O)N[C@@H](Cc2c[nH]c3ccccc23)C(=O)N[C@@H](Cc2ccc(C(=O)O)cc2)C(=O)NCC(=O)N2C[C@H](N)C[C@H]2C(=O)N[C@@H]([C@@H](C)c2c[nH]c3cccc(Cl)c23)C(=O)N[C@@H](CCC(=O)O)C(=O)N1C

These binders were tested against Recombinant human IL-1β (BioLegend 579404) (human, UniProt P01584 117-269) (assay: cell-based or functional assay).
For B1, the “MRC5 IC50” value was 0.0873 nM.
B2 was tested, and the “MRC5 IC50” value was 0.0207 nM.
With B3 the “MRC5 IC50” value was 0.247 nM.
With B4 the “MRC5 IC50” value was 0.0362 nM.
In the case of B5, the “MRC5 IC50” value is reported as 0.0493 nM.
